# B1: SmDHAR1 (Selaginella moellendorffii) (protein)
# chain: MAVATTEAVEVLVKAANGDPSRLGDCPFSQRVLLTLEEKGIPYNSKFVDMENKPAWFLEANPEGKVPVVKDDGKWVADSDVITQLIETKFPSPSLVTPPEKSSVGSKIFSSFVKFLKSKDPSDGSEAALLEELKTLDEYLAKNGPFVNGSNISAVDLSLAPKLYHLKIALGHYKQWSVPQNLTNLNSYMEALFKRESFQKTMAPAEVVVKGWAKHLSA
# notes: full length without predicted signal peptide, N-terminal 6xHis (pET-30a), E. coli BL21(DE3), Ni Sepharose; cytosolic, clade I
# B2: PabDHAR2 (Picea abies) (protein)
# chain: MSDLEIFSKAAPGTGSPSKERGDCPFSQRIFLELEELGLPYTATYIQEGADKPHWFMEKNPSGLMPVLRDRETWIQDSDKIAQYLDDHYAENTLRTQVEFKNVGSKIFPIFTKWLQCKDPNSACRDEFVDELVGFDRHLQNHGPYIAGKRPTDSDFALAPKLRHARVALAHFMDFQFPRELGALQNYMNRMESRESFEKTNYPNDMIIQGWRAKFNLPEKIANAS
# notes: full length without predicted signal peptide, N-terminal 6xHis (pET-30a), E. coli BL21(DE3), Ni Sepharose; cytosolic, clade II, five exons
# Tests used:
# Assay in all cases: A265 increase (ascorbate formation), nonlinear regression
# ZmDHAR2 = test system: T1, ZmDHAR2; type: biochemical, Zea mays; conditions: 0.42 mM GSH; DHA 0.013-1.677 mM; 90 mM potassium phosphate pH 6.5, 25 C; read-out: Kinetic constants / K m ^DHA
# T1 construct: gene DHAR2; clade I
# Excerpt: A265 increase (ascorbate formation), nonlinear regression on ZmDHAR2
# [1] = substrate: O=C1O[C@H]([C@@H](O)CO)C(=O)C1=O; type: biochemical, Selaginella moellendorffii; conditions: 0.42 mM GSH, DHA 0.013-1.677 mM, 90 mM potassium phosphate pH 6.5, 25 C
# Excerpt: A265 increase (ascorbate formation), nonlinear regression on SmDHAR1
# [2] = substrate: O=C1O[C@H]([C@@H](O)CO)C(=O)C1=O; type: biochemical, Picea abies; conditions: 0.42 mM GSH, DHA 0.013-1.677 mM, 90 mM potassium phosphate pH 6.5, 25 C
# Excerpt: A265 increase (ascorbate formation), nonlinear regression on PabDHAR2
molecule,measurement,setting,value
O=C1O[C@H]([C@@H](O)CO)C(=O)C1=O [dehydroascorbate],Km,ZmDHAR2,68 ± 9 µM
B1,Km,[1],0.115 ± 0.004 mM
B2,Km,[2],0.118 ± 0.001 mM

# From article PMC4687524, “Molecular Properties and Functional Divergence of the Dehydroascorbate Reductase Gene Family in Lower and Higher Plants” (PLoS ONE, 2015)
